Test results published in publication PMC7477632, “Aptamer-based surface-enhanced resonance Raman scattering assay on a paper fluidic platform for detection of cardiac troponin I”.

How the values were obtained:
[1] = target: T1, cardiac troponin I (cTnI) (UniProt P19429 2-210); assay: sandwich SERRS lateral-flow assay; capture aptamer on test line; N2 on AuNP as detector; assay LOD 0.016 ng/ml; running buffer PBS with 0.25% Tween; sample pad pretreated with 0.05 M Tris pH 7.6, 0.15 M NaCl, 0.25% Triton X-100; assay temperature not stated; conditions: protein: commercial
[2] = target: T1, cardiac troponin I (cTnI); assay: sandwich SERRS lateral-flow assay; detector aptamer on AuNP; N1 on test line as capture; assay LOD 0.016 ng/ml; running buffer PBS with 0.25% Tween; sample pad pretreated with 0.05 M Tris pH 7.6, 0.15 M NaCl, 0.25% Triton X-100; assay temperature not stated; conditions: protein: commercial

T1 sequence (P19429 2-210): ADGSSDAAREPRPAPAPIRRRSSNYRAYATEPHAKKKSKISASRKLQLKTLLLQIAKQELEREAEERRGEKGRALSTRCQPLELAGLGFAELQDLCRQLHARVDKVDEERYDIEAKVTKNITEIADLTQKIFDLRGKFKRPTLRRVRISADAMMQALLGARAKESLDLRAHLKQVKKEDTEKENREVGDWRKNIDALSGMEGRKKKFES

Binder | binding result [1] | binding result [2]
TTTTTTCGTGCAGTACGCCAACCTTTCTCATGCGCTGCCCCTCTTA (ssDNA, 5'-biotin) [primary cTnI aptamer] | binds | –
CGCATGCCAAACGTTGCCTCATAGTTCCCTCCCCGTGTCC (ssDNA, 5'-amine-spacer 18-spacer 18) [secondary cTnI aptamer] | – | binds
